Experimental data reported in patent publication US20220324909A1 (COHBAR, published 2022).
Non-standard residues stand in square brackets, D forms with d. Primed or numbered codes have the meaning given here. No end group written: not given here. PEG12″ = PEG12 group on the N-terminal Lys; PEG12(3) = not defined here

B1: SEQ ID NO 26 (peptide)
peptide: RREMVYQCLEG[dA]
B2: SEQ ID NO 44 (peptide)
peptide: MMGMV
B3: SEQ ID NO 21 (peptide)
peptide: RRMMGMVFQCLCG[dA]K(PEG12(3))
modifications: cysteine pairing not given here
B4: SEQ ID NO 38 (peptide)
peptide: RRMMGMVEQSLCG[dA]
B5: SEQ ID NO 32 (peptide)
peptide: RRMEVYQCLEG[dA]
B6: SEQ ID NO 22 (peptide)
peptide: RRMVYQCLCG[dA]
modifications: cysteine pairing not given here
B7: SEQ ID NO 27 (peptide)
peptide: RRMAYQCLEG[dA]
B8: SEQ ID NO 42 (peptide)
peptide: [PEG12″]KRRIIGIVFQCLCG[dA]
modifications: cysteine pairing not given here
B9: SEQ ID NO 46 (peptide)
peptide: MMGMVFQ
B10: SEQ ID NO 30 (peptide)
peptide: RRMMGMVAQCLEG[dA]
B11: SEQ ID NO 10 (peptide)
peptide: RRMMGMVYQCLCG[dA]
modifications: cysteine pairing not given here
B12: SEQ ID NO 25 (peptide)
peptide: RREMVYQCLCG[dA]
modifications: cysteine pairing not given here
B13: SEQ ID NO 29 (peptide)
peptide: RRMMGMVYQCLEG[dA]
B14: SEQ ID NO 36 (peptide)
peptide: KRRMMGMVFQSLCGA
modifications: (PEG12) on the N-terminal K (position 1); (dA) D-alanine at position 15
B15: SEQ ID NO 34 (peptide)
peptide: RXMMGMVFQSLCGA
modifications: (AIB) aminoisobutyric acid at position 2; (dA) D-alanine at position 14
B16: SEQ ID NO 47 (peptide)
peptide: MMGMVFQS
B17: SEQ ID NO 28 (peptide)
peptide: RRMGYQCLEG[dA]
B18: SEQ ID NO 40 (peptide)
peptide: RRLLGLVEQSLCG[dA]
B19: SEQ ID NO 31 (peptide)
peptide: RRMEVYQCLCG[dA]
modifications: cysteine pairing not given here
B20: SEQ ID NO 41 (peptide)
peptide: RRLLGLVFQSLEG[dA]
B21: SEQ ID NO 23 (peptide)
peptide: RRMVFQCLEG[dA]
B22: SEQ ID NO 14 (peptide)
peptide: RRMMGMVFQCLEG[dA]
B23: SEQ ID NO 37 (peptide)
peptide: KRRLLGLVFQSLCGA
modifications: (PEG12) on the N-terminal K (position 1); (dA) D-alanine at position 15
B24: SEQ ID NO 49 (peptide)
peptide: MMGMVFQSLCG[dA]
B25: SEQ ID NO 45 (peptide)
peptide: MMGMVF
B26: SEQ ID NO 35 (peptide)
peptide: RXLLGLVFQSLCGA
modifications: (AIB) aminoisobutyric acid at position 2; (dA) D-alanine at position 14
B27: SEQ ID NO 15 (peptide)
peptide: RRMMGMVFQSLCG[dA]
B28: SEQ ID NO 13 (peptide)
peptide: RRMMGMVFQELCG[dA]
B29: SEQ ID NO 33 (peptide)
peptide: RRLLGLVFQSLCG[dA]
B30: SEQ ID NO 24 (peptide)
peptide: RRMVYQCLEG[dA]
B31: SEQ ID NO 39 (peptide)
peptide: RRMMGMVFQSLEG[dA]
B32: SEQ ID NO 8 (peptide)
peptide: RRMMGMVFQCLCG[dA]
modifications: cysteine pairing not given here
B33: SEQ ID NO 48 (peptide)
peptide: MMGMVFQSL
B34: SEQ ID NO 20 (peptide)
peptide: KRRMMGMVFQCLCGA
modifications: (PEG12) on the N-terminal K (position 1); (dA) D-alanine at position 15
B35: SEQ ID NO 7 (peptide)
peptide: MRRMMGMVFQCLCGL
B36: SEQ ID NO 11 (peptide)
peptide: RRMMGMVAQCLCG[dA]
modifications: cysteine pairing not given here
B37: SEQ ID NO 12 (peptide)
peptide: RRMMGMVEQCLCG[dA]
modifications: cysteine pairing not given here
B38: SEQ ID NO 43 (peptide)
peptide: RRIIGIVFQSLCG[dA]

Each binder was assayed against ProLink tagged human APJ (Apelin Receptor) in CHO-K1 AGTRL1 β-Arrestin cells (human, UniProt P35414 1-380) (assay: cell-based or functional assay).

Binder | β-Arrestin recruitment, Percent of Apelin-13 Control Activity (10 µM peptide)
B1 | 0 % of Apelin-13 control
B2 | 0 % of Apelin-13 control
B3 | 1 % of Apelin-13 control
B4 | 0 % of Apelin-13 control
B5 | 0 % of Apelin-13 control
B6 | 0 % of Apelin-13 control
B7 | -1 % of Apelin-13 control
B8 | 8 % of Apelin-13 control
B9 | 0 % of Apelin-13 control
B10 | -1 % of Apelin-13 control
B11 | 3 % of Apelin-13 control
B12 | -1 % of Apelin-13 control
B13 | 0 % of Apelin-13 control
B14 | 63 % of Apelin-13 control
B15 | 8 % of Apelin-13 control
B16 | 1 % of Apelin-13 control
B17 | -1 % of Apelin-13 control
B18 | 0 % of Apelin-13 control
B19 | 0 % of Apelin-13 control

Binder | β-Arrestin recruitment, Percent of Apelin-13 Control Activity (10 µM peptide)
B20 | 0 % of Apelin-13 control
B21 | 0 % of Apelin-13 control
B22 | 0 % of Apelin-13 control
B23 | 12 % of Apelin-13 control
B24 | 1 % of Apelin-13 control
B25 | 0 % of Apelin-13 control
B26 | 17 % of Apelin-13 control
B27 | 40 % of Apelin-13 control
B28 | 1 % of Apelin-13 control
B29 | 9 % of Apelin-13 control
B30 | -1 % of Apelin-13 control
B31 | 0 % of Apelin-13 control
B32 | 17 % of Apelin-13 control
B33 | 1 % of Apelin-13 control
B34 | 1 % of Apelin-13 control
B35 | 91 % of Apelin-13 control
B36 | 0 % of Apelin-13 control
B37 | -1 % of Apelin-13 control

The binders below were run against T1, Apelin Receptor (APJ) stably overexpressed in CHO-K1 AGTRL1 Gi cells (human, UniProt P35414 1-380) (assay: cell-based or functional assay).
T1 sequence (looked up): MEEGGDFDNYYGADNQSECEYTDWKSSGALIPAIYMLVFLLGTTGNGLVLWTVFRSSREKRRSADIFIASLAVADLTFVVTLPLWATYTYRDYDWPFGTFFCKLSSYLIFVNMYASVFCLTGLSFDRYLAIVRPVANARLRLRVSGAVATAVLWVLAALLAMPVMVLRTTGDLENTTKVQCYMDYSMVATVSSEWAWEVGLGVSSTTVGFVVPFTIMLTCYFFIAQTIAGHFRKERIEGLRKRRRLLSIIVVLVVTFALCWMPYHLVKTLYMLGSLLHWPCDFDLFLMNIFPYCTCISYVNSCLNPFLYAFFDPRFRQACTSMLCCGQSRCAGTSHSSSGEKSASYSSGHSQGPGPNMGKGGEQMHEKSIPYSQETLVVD

Binder | cAMP levels, Percent of Pyr-Apelin-13 Control Activity (10 µM peptide, 10 µM forskolin)
B1 | 29 % of Pyr-Apelin-13 control
B2 | 5 % of Pyr-Apelin-13 control
B3 | 34 % of Pyr-Apelin-13 control
B4 | 12 % of Pyr-Apelin-13 control
B5 | 4 % of Pyr-Apelin-13 control
B6 | 62 % of Pyr-Apelin-13 control
B7 | 9 % of Pyr-Apelin-13 control
B8 | 33 % of Pyr-Apelin-13 control
B9 | 11 % of Pyr-Apelin-13 control
B10 | 31 % of Pyr-Apelin-13 control
B11 | 70 % of Pyr-Apelin-13 control
B12 | 3 % of Pyr-Apelin-13 control
B13 | 21 % of Pyr-Apelin-13 control
B14 | 101 % of Pyr-Apelin-13 control
B15 | 61 % of Pyr-Apelin-13 control
B16 | -6 % of Pyr-Apelin-13 control
B17 | 3 % of Pyr-Apelin-13 control
B18 | 19 % of Pyr-Apelin-13 control
B19 | 2 % of Pyr-Apelin-13 control

Binder | cAMP levels, Percent of Pyr-Apelin-13 Control Activity (10 µM peptide, 10 µM forskolin)
B20 | 15 % of Pyr-Apelin-13 control
B21 | -4 % of Pyr-Apelin-13 control
B22 | 39 % of Pyr-Apelin-13 control
B23 | 53 % of Pyr-Apelin-13 control
B24 | 14 % of Pyr-Apelin-13 control
B25 | 10 % of Pyr-Apelin-13 control
B26 | 8 % of Pyr-Apelin-13 control
B27 | 105 % of Pyr-Apelin-13 control
B28 | 49 % of Pyr-Apelin-13 control
B29 | 27 % of Pyr-Apelin-13 control
B30 | 16 % of Pyr-Apelin-13 control
B31 | -13 % of Pyr-Apelin-13 control
B32 | 64 % of Pyr-Apelin-13 control
B33 | 15 % of Pyr-Apelin-13 control
B34 | 37 % of Pyr-Apelin-13 control
B35 | 109 % of Pyr-Apelin-13 control
B36 | 49 % of Pyr-Apelin-13 control
B37 | 24 % of Pyr-Apelin-13 control

Biological target: T1, Apelin Receptor (APJ) stably …
Experiment: cell-based or functional assay
Remark: another data set of the same source

Binder | IC50, inhibition of forskolin-stimulated cAMP accumulation [µM]
B8 | 4.38
B38 | 2.07
B14 | 1.6
B23 | 2.5
B27 | 4.49
B35 | 1.24
